Source: patent EP1798242B1

Key:
[1] = target: récepteur à l'insuline IR exprimé sur des cellules d'insectes Sf9 (baculovirus) (UniProt P06213); experiment: FACScan on Sf9 insect cells expressing IR (baculovirus), anti-mouse FITC secondary; Tableau 1, column Cellules IR +
[2] = target: IGF-IR exprimé sur des cellules d'insectes Sf9 (baculovirus) (UniProt P08069); experiment: FACScan on Sf9 insect cells expressing IGF-IR (baculovirus), anti-mouse FITC secondary; Tableau 1, column Cellules IGF1R +
[3] = target: récepteur à l'insuline IR exprimé sur des cellules d'insectes Sf9 (baculovirus) (UniProt P06213); experiment: FACScan on Sf9 insect cells expressing IR (baculovirus), secondary antibody alone; Tableau 1, column Cellules IR +
[4] = target: IGF-IR exprimé sur des cellules d'insectes Sf9 (baculovirus) (UniProt P08069); experiment: FACScan on Sf9 insect cells expressing IGF-IR (baculovirus), secondary antibody alone; Tableau 1, column Cellules IGF1R +

MFI (Moyenne de l'intensité de fluorescence) [1]	MFI (Moyenne de l'intensité de fluorescence) [2]	MFI (Moyenne de l'intensité de fluorescence) [3]	MFI (Moyenne de l'intensité de fluorescence) [4]	Substance
32	35	–	–	AcM commercial αIR3 (anti-IGF-IR) (antibody)
–	–	13	9	Anti-souris FITC (antibody)
